# Reference: publication PMC10531723
# Target: PrP-CFP (mouse PrP(23-231) fused to CFP) (mouse) (UniProt P04925)
# Experiment: FRET or BRET
substance,measurement,value
PrP-YFP (mouse PrP(23-231) fused to YFP) (from UniProt P04925 23-231) (domain or fragment),FRET efficiency,31%
